Read-outs that look alike come from different tables or passages of the source.
T1: Csy complex (type I-F surveillance complex) (UniProt Q02ML9;Q02MM0;Q02MM1;Q02MM2 1-434;1-327;1-342;1-187)
T1 sequence 1: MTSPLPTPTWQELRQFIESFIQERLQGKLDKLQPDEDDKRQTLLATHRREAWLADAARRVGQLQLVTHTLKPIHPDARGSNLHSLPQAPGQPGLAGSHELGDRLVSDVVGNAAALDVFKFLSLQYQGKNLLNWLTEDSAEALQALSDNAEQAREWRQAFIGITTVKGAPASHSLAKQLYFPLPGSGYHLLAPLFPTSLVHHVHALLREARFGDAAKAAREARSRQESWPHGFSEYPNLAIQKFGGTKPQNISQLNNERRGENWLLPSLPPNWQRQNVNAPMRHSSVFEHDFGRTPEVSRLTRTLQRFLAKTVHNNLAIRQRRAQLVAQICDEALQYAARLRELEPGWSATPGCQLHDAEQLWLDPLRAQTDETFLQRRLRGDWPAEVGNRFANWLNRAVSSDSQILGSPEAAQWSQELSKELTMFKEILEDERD
T1 sequence 2: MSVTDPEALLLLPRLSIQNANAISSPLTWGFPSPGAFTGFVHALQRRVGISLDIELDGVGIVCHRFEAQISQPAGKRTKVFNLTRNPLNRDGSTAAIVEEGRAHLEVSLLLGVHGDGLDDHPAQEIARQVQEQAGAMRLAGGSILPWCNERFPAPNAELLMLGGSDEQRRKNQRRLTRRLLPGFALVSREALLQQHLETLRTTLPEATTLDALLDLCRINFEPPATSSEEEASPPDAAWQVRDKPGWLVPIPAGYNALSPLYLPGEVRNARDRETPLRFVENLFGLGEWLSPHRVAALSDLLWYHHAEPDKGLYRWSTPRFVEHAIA
T1 sequence 3: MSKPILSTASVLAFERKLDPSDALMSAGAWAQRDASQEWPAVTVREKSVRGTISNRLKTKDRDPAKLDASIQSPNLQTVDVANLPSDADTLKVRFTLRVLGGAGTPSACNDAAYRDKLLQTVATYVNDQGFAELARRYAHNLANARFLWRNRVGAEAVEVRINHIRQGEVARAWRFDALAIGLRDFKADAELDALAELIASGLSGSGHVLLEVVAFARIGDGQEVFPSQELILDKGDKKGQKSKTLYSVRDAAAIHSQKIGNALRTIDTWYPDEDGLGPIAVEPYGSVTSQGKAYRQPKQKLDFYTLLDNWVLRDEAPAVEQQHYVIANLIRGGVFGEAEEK
T1 sequence 4: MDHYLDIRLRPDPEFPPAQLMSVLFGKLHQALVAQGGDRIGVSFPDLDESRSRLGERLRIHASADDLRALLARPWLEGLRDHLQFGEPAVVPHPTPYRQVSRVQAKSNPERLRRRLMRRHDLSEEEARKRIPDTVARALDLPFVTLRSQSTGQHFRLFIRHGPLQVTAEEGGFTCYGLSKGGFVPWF


Experiments:
Assay in all cases: EMSA
[1] = molecular target: T2, Csy complex (type I-F surveillance complex);Cas2/3 (;, UniProt Q02ML9;Q02MM0;Q02MM1;Q02MM2;Q02ML8 1-434;1-327;1-342;1-187;1-1076, |)
[2] = molecular target: T1, Csy complex (type I-F surveillance …)
[3] = molecular target: T2, Csy complex (type I-F surveillance …); remark: listed apart in the source
[4] = molecular target: Csy M (Cas8f R299G/R302A);Cas2/3 (;, UniProt Q02ML9;Q02MM0;Q02MM1;Q02MM2;Q02ML8 1-434;1-327;1-342;1-187;1-1076, R299G;R302A|)

Binder | binding result [1] | Kd [2] [nM] | binding result [3] | binding result [4]
54-bp target dsDNA, 5'-FAM TS (dsDNA) DNA 1: GGAAGCCATCCAGGTAGACGCGGACATCAAGCCCGCCGTGAAGGTGCAGCTGCT DNA 2: AGCAGCTGCACCTTCACGGCGGGCTTGATGTCCGCGTCTACCTGGATGGCTTCC | binds | 9.46 ± 0.82 | – | –
54-bp dsDNA bubble, 5'-FAM TS (dsDNA) DNA 1: GGAAGCCATCCAGGTAGACGCGGACATCAAGCCCGCCGTGAAGGTGCAGCTGCT DNA 2: AGCAGCTGCACCAAGTGCCGCCGCTTGATGTCCGCGTCTACCTGGATGGCTTCC | – | 8.15 ± 0.62 | binds | binds
